Measured values published in a protein production outcome set (Wang et al. 2014).

Test: label from the status in PepcDB records

Row | Sequence | protein production
1 | MDAPGPKPLRVARYWLYTGEHPARTTEVPVWNKLCLSVCCAILVLTASSCGADKSSDFLTEGRKLMDAGNAAGAVVLFRNALEKTPADYTLHLELGRAYIALGKLDLAEGELQKCLRQQPDDPPLNLALGELYVARNEPAKALPHLARYEQGAGETAVSRELAGLAHAQARSPEEARAALERSIALDAKRVTPRLALARLFLYRGDLKRAVATVDEALAVAPEDRLALTLRGDLLLRQGDAPGALVVFRKVASLAPGDDYARYMSGLLALQTGDEAGAAAVAASMNKDFKDNSLTLMLDGALAAQRKDYTLAASLFQRSVAMRPSLEGYYKLGMALYGKGDLETALSQFNRVLEATPEYDAARRMTVTILLAQRRVAEARQEAQKLVERNPSDAAAHFMLASAQMAAGDRAGAERSFEAGLALQPAHVPALLQLSRLKQADGRPDEALEDLKAAVVAAPDDLAVRNALFAYHLGRGDTGKGVQVVLEGLRGTPQDAILYTMLVPVYVNMGDEAKGLDAVAQAHRADPDFPDAYLAGLRLHAGAGRAEQALAESEAYLARKPDAPGFLLASGALLDLLGRTAEADARFDKALAANDPRVSFAVAERAVASGQDEKARRVLEEALRQHDQTTLRDALAIQLARMGKPDDALALYTAIETQRPREALLGRYRLLTHLDRHQEAADTARELGRRESASPLPVLLEAAAFERMGQRPQGVALLEAAHRKSGDPELLLAMGGMLERNGDEARAETCYRDALKARPDHVPTLLAYAGLDMRRKEYAKATALYEKAVSIAPDDVVALNNLAMAYLEKASRDATPQKALRLALQAYTRAPDNPAVLDTLGVCMMANGRADDAARAFGRAVVAVPGNPSLRYRHAEALFKAGRKDMAAEELRAALQTPDFPEAAKARDLLRKTGN | failed
2 | MARAPARARGSRGLNCLAGSQQTRIPAQETDDLFTTCQFGETEEDTAVEEAETIDCLSIPKQKLAQSQKKINQFINEKMSTKANKELIRCFILSQIVFGKEHWKCAQALANLAYGYLTLRGLPAQAKKHAESARNTLLTWKRNTTSDKEKKEILETLVILYYTLGIAWLLQNHGKQAYIHLQKAQRNMKELKELNNGSIYEIQVSDKDLTIALGRASLAMHRMHLALAYFEKAICGVILAKGHDTSDLISLYEEIAQIEQLRKNHEQAIQYLQQAYSISVSSFTEVSPQTAEASALLAKAYAMSGESQHRDAVEIYFIRSISTYQTLGSEDYETLTTIEDFCTWLIQNGEKQEAYRLLKSTLNSCTFGDCGKKVAETFYNMGSICFAKGELREAIALLRKCLMIQSLIYGSEHTKSIETKSLLSLLQRPISRFPRTAEQSHGVVARAQMSKISAGMALSASASHWNNQSQMSWDSACIPMGASVLYDTSFRNAVKYSLDCHGQQPEFLSCGGSAS | failed
3 | MAWFLLVIAGIEEIIAAIAMKYIDGTRKKWPIIVMTVGFGLSFYCLSQAMIVLPAGVAYAVWTGIGSIGVSAVGLIWFKERFQLSQVISLCLILAGVIGLRLTSSS | failed
4 | MPSIIEAKHQGQKQSKNELKQARQSVIEQIQDLVPSSTVTHEYDFLFSGFALELPAHQIPSILGIDGVHAVYPNIEYEVETDFDEVVIEKDAYSPEMLDSAPFIGANDAWEAGYTGEGITVAILDTGVDYTHPDLVHAFGDYKGWDFIDNNDDPQETPPGDPRGIETTHGTHVAGTVAANGLIKGVAPDANLLAYRVLGPGGRGSTAGVIAGIERAVQDGADIMNLSLGNTLNDPDFATSIALDWAMAEGVVAVTSNGNSGPNNWTVGSPGTSRDAISVGATRLPYNKYKASVFTSDGIDYPSADIMGFPSDEELLELDGETYEYAFAGLGKPGDFEGVDVEGKIALIVRGEIPFVEKAENAKAAGAVGAIIYNNVAGVQPTVPGLAIPTIMLSNEDGLKMRNELENGQNTVTFSIEFDKLVGETVADFSSRGPVMHTWMIKPDVSAPGVAIVSTIPTHQPDDPYGYGSRQGTSMASPHVAGAAALLLEAHPNWGVDHVKAALMNTAENLVDENGNRYPHNTQGAGSIRIVDAIESETLVTPGSHSFGTFTKERGKQVERQHFTIHNLSNKRKTYQFDVQFAGNPDGIKVKTSKNLRVQPGKTQKINFNVQVDARKLDPGYYEGTIIVSDGSQTVEVPTILFVSEPDYPRVTTFDLDIDENGVLFGSAYLPNGAEEFGLWIYTRDTLEYVTSAAVVQNIGKGYHDVTWDTTELAPGRYYVFAYAERLGKTDFVLGDEIVVKLEHHHHHH | failed
5 | MIYYGTMFDHKVRFSIVRMREVVEEARNRHALSYLATVVLGRALIGAALVTPWLAEKERWTLDIEGNGPIRRVVAQSTSEFTVRGYVANPKVELPLNEKGKFDVAGAIGQGVLRVVRDLGLKTPFVSQVPLVSGEIAEDLAYYFAVSEQIPSAFSIGVLVDSDGVKIAGGFAVQIIDRTLEQEKVEMIEKNIKNLPSISKLFQEAEPLDVLERIFGEKVGFVETAEIKYKCDCNREKAKNALLVLDKKELEDMRKEGKGEVVCKWCNTRYVFSEEELEELLKFKVDDSGS | not failed
